Experimental data from patent publication US9393309B2, “Self-gelatinizable nucleic acid” (Kyoto University, priority 2011, dated 2016).

Columns and labels:
RAW264.7 cells = test: Release of TNF-α from RAW264.7 cells (ELISA); format: cell-based, murine; settings: 0.5, 1 or 2 μg/ml, 8 hours
Method: In a RPMI1640 medium to which 10% heat inactivated FBS, 0.15% sodium bicarbonate, 100 units/ml penicillin, […] streptomycin and 2 mML-glutamine were added, murine macrophage-like RAW264.7 cells were proliferated in humidified air containing 5% CO2 at 37° C. Subsequently, cells were seeded on a 24-well or 96-well culture plate at a density of 5×10^5 cells/well, and cultured for 24 hours before use.
The RAW264.7 cells were seeded on a 24-well plate at a density of 2.5×10^5 cells/well, and incubated for 24 hours before treatment. Then, ssDNA, dsDNA, or several kinds of polypodnas diluted in 0.5 ml of Opti-MEM were added to the cells at a final concentration of 0.5, 1 or 2 μg/ml. The cells were incubated for 8 hours, the supernatant was recovered and stored at −70° C. before use. The concentrations of TNF-α and IL-6 in the supernatant were measured by Enzyme-Linked Immunosorbent Assay (ELISA) using an OptEIA™ set (Pharmingen, San Diego, Calif., USA).
The same experiment as in Example 22 was carried out except that each poolypodna preparation was prepared in the same manner as in Example 1 by using the sequences in Table 1. However, the added DNA was equal amount in each case.

[1] = Release of encapsulated OVA from gel; format: physicochemical; settings: DNA 0.5 mM
Method: By controlling the nature and salt concentration of protruding ends of Tetrapodna, the change of the releasing rate of an encapsulated compound in a gel was examined. Specifically, Tetrapodna (4-18-18) (SEQ ID NOs.: 2, 4, 5 and 6) including a cohesive protruding end and Tetrapodna (4-18-18) (SEQ ID NOs.: 58, 59, 60 and 61) as a control including a non-cohesive protruding end were used. In an aqueous solution of Tetrapodna which had been prepared such that the DNA concentration was 0.5 mM, the NaCl concentration was adjusted to 5 mM or 150 mM. When the NaCl concentration was increased, egg albumin (OVA, concentration of 2.5 μg/μl) was added as an encapsulated substance to cause gelation, and then the percentage of OVA released from the gel with the passage of time was measured.

[2] = Gel formation in a living body after subcutaneous injection of sol; format: in vivo; settings: total DNA 2 mM, NaCl 5 mM, back of mouse
Text: The hydrogel produced in Example 1 was able to be prepared in a sol state by appropriately adjusting conditions. Therefore, the hydrogel was able to be administered in a living body by injection. […] Thus, it was confirmed that a gel is formed in a living body only by preparing the hydrogel in accordance with the present invention in a sol state and administering the hydrogel to a living body.

[3] = tested on: mouse dendritic cell DC2.4; test: Stimulation of dendritic cells by gel; format: cell-based; settings: gel brought into contact with DC2.4
[4] = Evaluation of gelation at various DNA concentrations and NaCl concentrations; format: physicochemical; design: key: ◯: the mark “∘” is given to cases in which gelation was observed; X: the mark “x” is given to cases of a solution state (sol-state)
Method: […] The gel formation and the gel strength were measured by a gel strength analyzer (gel strength meter, Nakayamadenki Co., Ltd, Osaka).
Specifically, by changing the DNA concentrations of an aqueous solution of Tripodona (4-18-18) (X=4) (SEQ ID NOs.: 1, 2 and 3), Tetrapodna (4-18-18) (X=4) (SEQ ID NOs.: 2, 4, 5 and 6), Hexapodna (4-18-18) (X=4) (SEQ ID NOs.: 2, 3, 4, 7, 9 and 10) and Tetrapodna (8-16-16) (X=8) (SEQ ID NOs.: 22, 23, 24 and 25) as shown in the lines of Table 4, and by changing the NaCl concentration as shown in the rows of Table 4, whether or not a gel is formed at various DNA concentrations and NaCl concentrations was evaluated. The results are shown such that the mark “∘” is given to cases in which gelation was observed, and the mark “x” is given to cases of a solution state (sol-state).

[5] = Temperature conditions for gel formation; format: physicochemical; settings: NaCl 150 mM
Method: Furthermore, we investigated a possibility that temperature conditions are also involved in gelation. Tetrapodna (4-18-18) (SEQ ID NOs.: 2, 4, 5 and 6), Hexapodna (4-18-18) (SEQ ID NOs.: 2, 3, 4, 7, 9 and 10) and Tetrapodna (8-16-16) (SEQ ID NOs.: 22, 23, 24 and 25) were used to examine the temperature conditions for allowing a gel be present or a sol to be present by fixing the NaCl concentration at 150 mM and changing the DNA concentration variously.

[6] = Formation of hydrogel from nucleic acid units without ligase; format: physicochemical; settings: without DNA ligase
Method: A NaCl solution was added to an ODN solution (polypodna) such that the final Na^+ concentration was 5 to 150 mM. The gel formation and the gel strength were measured by a gel strength analyzer (gel strength meter, Nakayamadenki Co., Ltd, Osaka).
A structure to be a hydrogel (a nucleic acid monomer and an estimated nucleic acid unit) in conditions at room temperature, at 5 mM to 150 mM sodium chloride concentration (150 mM is substantially physiological concentration), and not containing a DNA ligase was elucidated. […] For convenience, nucleic acid units estimated to be formed according to the number of nucleic acid monomers capable of constituting the nucleic acid unit were represented by xxxpodna (xxxpod-like structure forming nucleic acid, xxx is substituted by tri (3), tetra (4) and the like, according to the number of nucleic acid monomers capable of constituting the nucleic acid unit). In Table 2 described below, xxxpodna is an estimated nucleic acid unit, and each of xxx-Y-N is a nucleic acid monomer that can be a constituent element of the nucleic acid unit (xxxpodna) which is mentioned above thereof. When the descriptions of Ys are different from each other, different nucleic acid units can be formed. N denotes numbering of nucleic acid monomers constituting each of the estimated nucleic acid units.
Unlike (1-1) described above, gelation can be controlled by using a nucleic acid monomer including cohesive protruding ends which are not attached to themselves (that is, not palindrome sequence).

[7] = Percentage of remaining gels with the passage of time; format: physicochemical; settings: DNA 0.5 mM, NaCl 150 mM
Method: Gels were formed by adjusting the NaCl concentration at 150 mM in an aqueous solution containing Tetrapodna (12-14-14) (SEQ ID NOs.: 30, 31, 32 and 33) at a DNA concentration of 0.1 mM, 0.25 mM or 0.5 mM, and the percentage of the remaining gels was measured with the passage of time. The results are shown in a graph in the left upper side of FIG. 17.
Gels were formed in conditions at a certain DNA concentration (0.5 mM) and a certain NaCl concentration (150 mM), and the percentage of the remaining gels was measured with the passage of time by using Tetrapodna (respectively, SEQ ID NOs.: 2, 4, 5 and 6, SEQ ID NOs.: 18, 19, 20 and 21, SEQ ID NOs.: 22, 23, 24 and 25, SEQ ID NOs.: 26, 27, 28 and 29, as well as SEQ ID NOs.: 30, 31, 32 and 33) having various lengths of the cohesive protruding end (4, 6, 8, 10 or 12 bases). The results are shown in a graph in the left lower side of FIG. 17. […] When 12 hours had passed, the percentage of the remaining gels became about 50%.
Gels were formed by variously changing the NaCl concentrations (5 mM, 50 mM, 100 mM or 150 mM) of an aqueous solution containing Tetrapodna (12-14-14) (SEQ ID NOs.: 30, 31, 32 and 33) at a DNA concentration of 0.5 mM, and the percentage of the remaining gels was measured with the passage of time. The results are shown in a graph in the right upper side of FIG. 17. […] At a low salt concentration (5 mM), almost all the formed gels became in a sol state when about 6 hours had passed. When the salt concentration was increased to 50 mM, solation tendency was weakened, a change from a gel into a sol occurred moderately (about 40% when 12 hours had passed).
The percentage of the remaining gels was measured with the passage of time in the same manner as in (8-3) except that Tetrapodna (4-18-18) (SEQ ID NOs.: 2, 4, 5 and 6) was used instead of Tetrapodna (12-14-14) (SEQ ID NOs.: 30, 31, 32 and 33). The results are shown in a graph in the right lower side of FIG. 17. […] In (8-3), Tetrapodna (12-14-14) (the length of the cohesive protruding end is 12 bases) was used. In (8-4), Tetrapodna (4-18-18) (the length of the cohesive protruding end is 4 bases) was used.

ssDNA36: single strand 36 mer ODN, SEQ ID No. 108 (DNA TCGCTGACGTTGCAGACATCACGTTGACGCTGTCGA; unmodified DNA) [reference compound]
TNF-α release (RAW264.7 cells): the TNF-α release hardly occurred

B1: control Tetrapodna: Tetrapodna (4-18-18), SEQ ID NOs.: 58, 59, 60 and 61, non-cohesive protruding end, control (nucleic acid)
DNA 1: AGTCTCGCTGACGTTGCAGACATCACGTTGACGCTGTCGA
DNA 2: AGTCTCGACAGCGTCAACGTGAAACGTGAAGCGTCTGCGA
DNA 3: AGTCTCGCAGACGCTTCACGTTGCAGACAGACGTTGACGA
DNA 4: AGTCTCGTCAACGTCTGTCTGCTGTCTGCAACGTCAGCGA
modifications: unmodified DNA
gelation ([1]; NaCl 5 mM or 150 mM): Gelation hardly found
percentage of OVA released from the first ([1]; OVA 2.5 μg/μl): ~100%
gel formation in a living body [2]: a gel was not formed in a living body

B2: Tetrapodna (4-18-18) which does not contain a CpG motif: four ODNs, SEQ ID NOs.: 14, 15, 16 and 17, not containing CpG (nucleic acid)
DNA 1: AGCTAGGCACCGTAGTCAATCGCCGATGTGTCCAAAGCCT
DNA 2: AGCTAGGCTTTGGACACATCGGTGCTCCTACCGTACTCCT
DNA 3: AGCTAGGAGTACGGTAGGAGCAGTTTCGGCATGTCCACCT
DNA 4: AGCTAGGTGGACATGCCGAAACCGATTGACTACGGTGCCT
modifications: DNA, all phosphodiester, methylation of C not given here
immunological stimulation of dendritic cell [3]: did not immunologically stimulate a mouse dendritic cell

B3: Tetrapodna(8-16-16): four ODNs, SEQ ID NOs.: 22, 23, 24 and 25, 8-base cohesive protruding end (nucleic acid)
DNA 1: ACGTACGTTAGCACGACATCAGCGTCTGACGCTTCGTCGA
DNA 2: ACGTACGTTCGACGAAGCGTCAGATCTCGTCAACGCTGCA
DNA 3: ACGTACGTTGCAGCGTTGACGAGACAGACGCTTGACGCTA
DNA 4: ACGTACGTTAGCGTCAAGCGTCTGCGCTGATGTCGTGCTA
modifications: unmodified DNA
gelation ([4]; Na+ 2 mM, DNA 0.6 mM): ◯
gelation ([4]; Na+ 10 mM, DNA 0.5 mM): X
gelation ([4]; Na+ 20 mM, DNA 0.5 mM): ◯
temperature at which gel is present ([5]; DNA concentration 0.5 mM): gel at 55 °C
temperature at which sol is present ([5]; DNA concentration 0.5 mM): sol at 75 °C
gel formation [6]: gels can be prepared
initial percentage of gels [7]: about 100%
percentage of the remaining gels with the passage of time [7]: decreased with the passage of time only slightly

B4: Hexapodna(4-18-18): six ODNs, SEQ ID NOs.: 2, 3, 4, 7, 9 and 10, 4-base cohesive protruding end (nucleic acid)
DNA 1: ACGTTCGACAGCGTCAACGTGAAACGTGAAGCGTCTGCGA
DNA 2: ACGTTCGCAGACGCTTCACGTTGAGCACAGACGTTGACGA
DNA 3: ACGTTCGCTGACGTTGCAGACATCACGTTGACGCTGTCGA
DNA 4: ACGTTCGTCAACGTCTGTGCTCGCAGCGTCTTAACGTCGA
DNA 5: ACGTTCGACGTTAAGACGCTGCAGACGTTCAGGACTACGA
DNA 6: ACGTTCGTAGTCCTGAACGTCTTGTCTGCAACGTCAGCGA
modifications: unmodified DNA
gelation ([4]; Na+ 2 mM, DNA 0.8 mM): ◯
gelation ([4]; Na+ 20 mM, DNA 0.7 mM): X
gelation ([4]; Na+ 50 mM, DNA 0.5 mM): X
gelation ([4]; Na+ 50 mM, DNA 0.6 mM): X
gelation ([4]; Na+ 50 mM, DNA 0.7 mM): ◯
gelation ([4]; Na+ 100 mM, DNA 0.4 mM): X
gelation ([4]; Na+ 100 mM, DNA 0.5 mM): ◯
gelation ([4]; Na+ 100 mM, DNA 0.6 mM): ◯
gelation ([4]; Na+ 150 mM, DNA 0.3 mM): X
gelation ([4]; Na+ 150 mM, DNA 0.4 mM): ◯
temperature at which gel is present ([5]; DNA concentration 1.0 mM): gel at 65 °C
temperature at which sol is present ([5]; DNA concentration 1.0 mM): sol at 75 °C
temperature at which gel is present ([5]; DNA concentration 0.3-0.8 mM): gel at 55 °C
temperature at which sol is present ([5]; DNA concentration 0.3-0.8 mM): sol at 65 °C
gel formation [6]: gels can be prepared
